According to paper PMC8357826, “The extracellular chaperone Clusterin enhances Tau aggregate seeding in a cellular model” (Nature Communications, 2021):

Target: cysteine-free TauRD (Tau repeat domain, residues 244-371, C291A/P301L/C322A/V337M) (UniProt P10636-8 244-371, C291A | P301L | C322A | V337M)
Test: cell-based or functional assay

cysteine-free TauRD (Tau repeat domain, residues 244-371, C291A/P301L/C322A/V337M), sequence (P10636 561-688 C608A/P618L/C639A/V654M): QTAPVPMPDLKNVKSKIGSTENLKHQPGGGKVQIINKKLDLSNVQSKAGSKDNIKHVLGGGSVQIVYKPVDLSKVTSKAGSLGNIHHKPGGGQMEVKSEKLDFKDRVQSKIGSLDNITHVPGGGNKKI

B1: Clusterin (Clu; apolipoprotein J), recombinant with Strep tag (CluStrep) (natural protein, human)
chain 1: DQTVSDNELQEMSNQGSKYVNKEIQNAVNGVKQIKTLIEKTNEERKTLLSNLEEAKKKKEDALNETRESETKLKELPGVCNETMMALWEECKPCLKQTCMKFYARVCRSGSGLVGRQLEEFLNQSSPFYFWMNGDRIDSLLENDRQQTHMLDVMQDHFSRASSIIDELFQDRFFTREPQDTYHYLPFSLPHRRPHFFFPKSRIVR
chain 2: SLMPFSPYEPLNFHAMFQPFLEMIHEAQQAMDIHFHSPAFQHPPTEFIREGDDDRTVCREIRHNSTGCLRMKDQCDKCREILSVDCSTNNPSQAKLRRELDESLQVAERLTRKYNELLKSYQWKMLNTSSLLEQLNEQFNWVSRLANLTQGEDQYYLRVTTVASHTSDSDVPSGVTEVVVKLFDSDPITVTVPVEVSRKNPKFMETVAEKALQEYRKKHREE
modifications: N-glycosylated | N-glycosylated
  seeding capacity in TauRD-YT cells of the soluble fraction of a TauRD aggregation reaction made without Clu, after adding Clu: ~5 fold
  specific seeding activity (FRET-positive TauRD-YT cells per ng TauRD) of the Clu-containing supernatant against the supernatant without Clu: ~40 fold
